Assay results taken from the supplement of paper PMC10567573.

B1: SLC19A2 (parent)
chain: IYPVWTYSYLVLLFPVFLATDYLR
B2: MIA2 (parent)
chain: SVIEPVQESSFRSRKIAVEDENDL

Variants of: B1
Test: protein stability index of a GFP-peptide fusion (GPS, HEK-293T) (PSI 1-6); higher = more stable
Settings: c terminus: a fixed tail appended
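Also: lentivirally expressed fusions sorted by FACS into six bins by GFP to DsRed ratio, PSI derived from sequencing read proportions per bin multiplied by bin number.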

Protein stability index of substitutions, site by site:
T6: K 3.04, Q 2.73, L 4.55, A 2.63, N 3.48
I1: F 2.21, T 3.48, L 3.49, P 3.33, N 2.98
Y9: K 2.81, R 4.42, H 2.97, C 4.17, I 3.67, F 1.75
L13: A 3.41, M 3.06, S 2.34, I 2.53, Q 4.28
L12: R 2.37, H 3.3, Q 3.02, A 3.41, P 3.92, S 2.91, W 3.3, V 2.6, D 2.3, F 2.25
L10: P 2.29, G 3.23, T 2.94, E 3.11
W5: K 4.35, D 2.3, Y 2.72, F 3.25
P3: H 3.02, N 2.57, W 3.05
V11: D 3.85, N 2.92, M 1.95, Q 4.14
V16: S 3.4, R 3.91, T 2.15, D 4.04, H 4.12, E 1.72, Q 3.85
R24: F 3.56, Y 2.75, M 2.99, S 3.04
L18: G 3.7, P 3.1, F 2.3, Q 2.84, K 2.51
D21: K 2.46, G 2.73, A 3.19, F 2.61, P 2.63, C 2.36
F17: T 2.95, N 3.6, Y 2.43, A 3.59, S 2.64
T20: W 1.93, L 4.02
P15: A 3.53, S 2.5, H 2.75, C 3.79, R 2.7, Q 3.38, E 3.03, W 3.27
Y2: L 2.15, D 2.77, K 2.44, Q 3.11, H 2.29, F 3.09
L23: G 3.42, S 2.62
S8: G 2.84, H 3.06, Q 3.59, F 2.43, R 3.57, A 4.5
A19: I 2.47
Y7: I 2.4, T 2.58, Q 2.58
F14: I 3.07, G 3.54, Y 2.88, A 2.08, W 2.47
Y22: S 3.06, K 4.23, G 1.66, D 2.55, V 2.6, T 2.68
V4: F 3.35, I 3.46, Y 2.91, A 2.73, H 3.32

Variants of: B2
Test: as above
Settings: c terminus: a fixed tail appended

Protein stability index, by site and new letter:
A17: K 5.59, G 5.14, V 5.3, P 5.66, T 5.09, M 5.55, I 5.05, C 4.81, Q 5.44, Y 4.87, F 5.05, D 5.43, S 4.86, H 5.53, W 4.92, L 4.97, N 5.45, R 4.77, E 5.68
V18: R 5.72, S 5.69, H 5.36, Y 5.21, M 4.43, C 5.03, K 5.63, E 5.53, P 5.32, D 4.18, T 4.94, Q 5.15, N 5.1, W 5.16, I 5.3, G 5.18, A 5.35, L 4.56, F 5.36
D23: T 4.71, G 4.72, N 5.1, E 5.54, I 4.64, S 5.2, Y 4.24, Q 5.83, W 3.86, C 4.39, M 4.82, R 5.07, H 4.95, A 5.26, V 5.1, P 4.28, L 4.63, F 3.65, K 4.95
N22: T 5.33, D 5.84, K 5.04, Y 4.53, V 5.73, W 4.35, F 4.96, L 4.8, P 4.96, E 5.08, I 4.89, A 5.47, C 5, M 4.74, Q 5.77, R 5.09, G 5.04, H 5.43, S 3.82
E19: D 5.03, G 4.5, A 5.13, Q 5.33, R 4.51, P 5.32, M 4.62, Y 4.67, L 4.56, H 4.56, I 4.25, T 5.02, C 4.62, V 5.03, S 5.31, K 5.35, W 4.15, F 4.53, N 5.08
K15: T 5.11, F 5.03, S 5.61, A 5.63, W 4.44, I 5.05, V 5.43, Y 5.29, Q 5.71, G 4.85, M 5.11, E 5.69, N 5.67, P 5.65, D 5.52, H 5.36, L 5.14, C 5.2, R 5.43
E21: D 5.38, P 4.42, A 4.83, R 4.7, I 4.46, Q 5.29, W 3.85, V 4.9, F 4.31, G 5.27, Y 4.47, H 4.63, L 4.62, C 4.32, T 5.19, S 5.23, K 5.05, M 4.32, N 4.74
S13: T 5.66, Y 5.12, Q 5.03, M 4.86, W 4.72, N 5.61, P 5.18, R 5.53, V 5.23
R14: S 5.13, T 5.31, Q 5.67, N 5.75, A 5.53, K 5.67, L 4.98, Y 4.42, W 4.13, V 5.51, D 5.75, H 5.4, E 5.32, I 5.04, F 4.39, P 5.4, C 5.08, G 5.55, M 5.02
L24: T 5.57, V 5.82, K 5.12, G 5.75, N 5.67, Q 5.51, W 4.73, E 5.67, I 4.66, H 5, F 5.19, M 5.31, C 5.32, A 5.43, Y 4.92, D 5.26, P 5.42, S 5.88, R 5.49
D20: W 4.1, E 5.72, R 4.94, P 3.94, I 4.64, N 5.57, L 4.42, V 4.57, Y 4.18, H 4.35, Q 5.25, M 4.8, K 5.13, T 5.38, A 4.63, F 3.83, G 5.21, C 4.89
I16: N 5.6, T 5.37, F 5.12, P 5.04, W 4.66, R 5.22, M 5.42, H 4.28, C 4.17, A 4.72, Q 5.15, L 5.13, E 5.19, G 5.42, S 5.45, K 5.01, D 5.68, Y 4.98, V 5.41
